Paper PMC10287916, “MSH2-MSH3 promotes DNA end resection during homologous recombination and blocks polymerase theta-mediated end-joining through interaction with SMARCAD1 and EXO1” (Nucleic Acids Research, 2023)

Experiments:
[1] = biological target: T1, MSH2-MSH3 (MutSβ), purified (human, UniProt P43246 1-934; P20585 1-1137); experiment: co-IP; in vitro immunoprecipitation: purified first protein on antibody-conjugated Dynabead protein G, washed with buffer X, second purified protein added for 1 h; western blot; conditions: both partners purified
T1 construct: MSH2, human, full length; MSH3, human, full length; Purified on a HisTrap HP column; also called MSH2-MSH3 heterodimer; source: Hi5 insect cells (baculovirus), purified (HisTrap HP, Superdex 200)

[2] = biological target: T2, MSH2-MSH6 (MutSα), purified (human, UniProt P43246 1-934; P52701 1-1360); experiment: native gel or EMSA; 4 μM or 8 μM SMARCAD1 incubated with 1 nM Cy5-labeled 40 bp homoduplex, GT mismatch or 58 bp flap DNA in buffer H with 1 mM ATP, then MSH2-MSH6 titrated, 5 min; conditions: both partners purified
T2 construct: MSH2, human, full length; MSH6, human, full length; source: Hi5 insect cells (baculovirus), purified (HiTrap Heparin HP, HiTrap Q HP, Superdex 200)
T2 sequence (P43246 whole entry, chain 1 of 2): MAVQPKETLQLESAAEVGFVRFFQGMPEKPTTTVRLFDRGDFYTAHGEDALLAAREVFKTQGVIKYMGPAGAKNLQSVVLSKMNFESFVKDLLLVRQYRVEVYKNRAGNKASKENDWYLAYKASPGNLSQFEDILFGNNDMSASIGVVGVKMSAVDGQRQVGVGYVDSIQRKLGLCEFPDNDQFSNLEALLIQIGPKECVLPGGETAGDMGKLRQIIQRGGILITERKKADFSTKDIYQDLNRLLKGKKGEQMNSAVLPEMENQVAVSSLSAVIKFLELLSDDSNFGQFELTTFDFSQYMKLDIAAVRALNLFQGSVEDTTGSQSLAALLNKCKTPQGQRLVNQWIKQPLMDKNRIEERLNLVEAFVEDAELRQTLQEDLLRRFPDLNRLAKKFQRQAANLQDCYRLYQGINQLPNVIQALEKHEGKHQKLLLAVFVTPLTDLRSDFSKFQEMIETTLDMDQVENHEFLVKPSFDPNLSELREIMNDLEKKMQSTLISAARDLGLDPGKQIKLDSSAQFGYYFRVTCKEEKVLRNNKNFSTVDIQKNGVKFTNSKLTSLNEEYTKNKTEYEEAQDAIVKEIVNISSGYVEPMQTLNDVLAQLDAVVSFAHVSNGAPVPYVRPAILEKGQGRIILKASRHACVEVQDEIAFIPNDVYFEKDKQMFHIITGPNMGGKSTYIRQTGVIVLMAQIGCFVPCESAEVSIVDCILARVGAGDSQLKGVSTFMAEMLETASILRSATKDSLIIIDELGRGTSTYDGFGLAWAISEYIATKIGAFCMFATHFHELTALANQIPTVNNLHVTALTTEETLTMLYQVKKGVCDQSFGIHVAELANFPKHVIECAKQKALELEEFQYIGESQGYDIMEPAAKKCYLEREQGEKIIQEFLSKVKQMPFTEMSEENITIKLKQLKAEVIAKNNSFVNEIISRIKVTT
T2 sequence (P52701 whole entry, chain 2 of 2): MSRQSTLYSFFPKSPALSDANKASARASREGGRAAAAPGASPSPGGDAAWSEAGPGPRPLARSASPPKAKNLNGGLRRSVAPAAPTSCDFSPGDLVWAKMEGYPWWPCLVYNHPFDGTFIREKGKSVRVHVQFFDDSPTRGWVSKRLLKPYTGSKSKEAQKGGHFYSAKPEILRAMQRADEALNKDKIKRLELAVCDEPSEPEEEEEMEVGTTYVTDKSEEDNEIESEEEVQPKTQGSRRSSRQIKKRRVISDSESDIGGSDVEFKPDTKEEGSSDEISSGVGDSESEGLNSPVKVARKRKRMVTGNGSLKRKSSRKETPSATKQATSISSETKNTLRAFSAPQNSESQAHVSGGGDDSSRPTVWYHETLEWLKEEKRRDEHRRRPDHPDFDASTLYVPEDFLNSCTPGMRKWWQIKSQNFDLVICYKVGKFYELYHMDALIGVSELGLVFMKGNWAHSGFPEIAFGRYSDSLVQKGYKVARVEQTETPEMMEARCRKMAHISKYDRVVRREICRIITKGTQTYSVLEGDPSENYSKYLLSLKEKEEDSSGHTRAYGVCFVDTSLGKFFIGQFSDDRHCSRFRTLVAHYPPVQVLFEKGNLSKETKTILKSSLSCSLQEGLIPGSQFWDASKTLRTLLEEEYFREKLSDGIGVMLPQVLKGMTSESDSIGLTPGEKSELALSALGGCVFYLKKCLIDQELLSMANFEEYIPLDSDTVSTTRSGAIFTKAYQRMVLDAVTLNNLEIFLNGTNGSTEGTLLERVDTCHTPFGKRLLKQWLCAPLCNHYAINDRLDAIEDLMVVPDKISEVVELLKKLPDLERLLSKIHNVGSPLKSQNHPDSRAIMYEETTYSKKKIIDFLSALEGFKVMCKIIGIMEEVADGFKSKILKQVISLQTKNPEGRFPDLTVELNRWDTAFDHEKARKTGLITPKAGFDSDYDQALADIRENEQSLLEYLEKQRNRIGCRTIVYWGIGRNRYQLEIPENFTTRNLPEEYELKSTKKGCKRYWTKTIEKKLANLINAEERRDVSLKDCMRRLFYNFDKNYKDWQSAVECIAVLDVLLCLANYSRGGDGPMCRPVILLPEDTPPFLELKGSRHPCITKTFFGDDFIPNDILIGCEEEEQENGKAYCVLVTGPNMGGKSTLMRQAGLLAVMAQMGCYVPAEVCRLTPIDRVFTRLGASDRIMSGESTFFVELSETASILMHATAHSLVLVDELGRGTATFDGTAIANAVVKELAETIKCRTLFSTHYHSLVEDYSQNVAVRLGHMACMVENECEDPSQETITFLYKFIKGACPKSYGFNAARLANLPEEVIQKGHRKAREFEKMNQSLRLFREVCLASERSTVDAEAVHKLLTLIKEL

T1 sequence (P43246 whole entry, chain 1 of 2): as the sequence (P43246 whole entry, chain 1 of 2) above
T1 sequence (P20585 whole entry, chain 2 of 2): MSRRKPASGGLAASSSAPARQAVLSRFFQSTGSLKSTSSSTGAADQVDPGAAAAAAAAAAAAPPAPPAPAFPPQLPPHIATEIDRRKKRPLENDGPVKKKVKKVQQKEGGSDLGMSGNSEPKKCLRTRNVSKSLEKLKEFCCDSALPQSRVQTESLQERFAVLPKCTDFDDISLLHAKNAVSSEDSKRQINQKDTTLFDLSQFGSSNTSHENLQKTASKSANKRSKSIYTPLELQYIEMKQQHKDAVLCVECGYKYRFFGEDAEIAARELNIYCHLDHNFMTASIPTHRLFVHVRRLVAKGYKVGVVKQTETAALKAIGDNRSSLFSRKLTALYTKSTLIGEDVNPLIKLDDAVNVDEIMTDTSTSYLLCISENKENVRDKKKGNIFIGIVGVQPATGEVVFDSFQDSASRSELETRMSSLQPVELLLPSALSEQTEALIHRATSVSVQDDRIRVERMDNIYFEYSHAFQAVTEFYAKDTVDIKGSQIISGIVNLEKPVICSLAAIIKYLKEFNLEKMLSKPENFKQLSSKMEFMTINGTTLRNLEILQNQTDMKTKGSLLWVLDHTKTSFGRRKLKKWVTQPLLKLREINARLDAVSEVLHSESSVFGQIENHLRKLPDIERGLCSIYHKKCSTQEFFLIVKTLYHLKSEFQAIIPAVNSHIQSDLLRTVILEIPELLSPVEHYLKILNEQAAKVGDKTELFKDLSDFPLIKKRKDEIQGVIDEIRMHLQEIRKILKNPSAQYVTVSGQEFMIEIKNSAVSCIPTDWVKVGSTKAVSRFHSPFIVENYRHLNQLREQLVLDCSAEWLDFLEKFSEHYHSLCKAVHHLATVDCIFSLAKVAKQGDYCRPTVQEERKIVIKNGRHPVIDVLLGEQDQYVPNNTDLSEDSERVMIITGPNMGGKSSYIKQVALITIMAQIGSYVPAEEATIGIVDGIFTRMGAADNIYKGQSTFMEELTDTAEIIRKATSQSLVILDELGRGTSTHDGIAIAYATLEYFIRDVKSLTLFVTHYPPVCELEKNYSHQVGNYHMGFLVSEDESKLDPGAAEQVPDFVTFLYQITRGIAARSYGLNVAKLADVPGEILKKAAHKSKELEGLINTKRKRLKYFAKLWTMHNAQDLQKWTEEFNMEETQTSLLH

B1: SMARCAD1, purified (enzyme, human, UniProt Q9H4L7 1-1026, looked up)
chain: MNLFNLDRFRFEKRNKIEEAPEATPQPSQPGPSSPISLSAEEENAEGEVSRANTPDSDITEKTEDSSVPETPDNERKASISYFKNQRGIQYIDLSSDSEDVVSPNCSNTVQEKTFNKDTVIIVSEPSEDEESQGLPTMARRNDDISELEDLSELEDLKDAKLQTLKELFPQRSDNDLLKLIESTSTMDGAIAAALLMFGDAGGGPRKRKLSSSSEPYEEDEFNDDQSIKKTRLDHGEESNESAESSSNWEKQESIVLKLQKEFPNFDKQELREVLKEHEWMYTEALESLKVFAEDQDMQYVSQSEVPNGKEVSSRSQNYPKNATKTKLKQKFSMKAQNGFNKKRKKNVFNPKRVVEDSEYDSGSDVGSSLDEDYSSGEEVMEDGYKGKILHFLQDASIGELTLIPQCSQKKAQKITELRPFNSWEALFTKMSKTNGLSEDLIWHCKTLIQERDVVIRLMNKCEDISNKLTKQVTMLTGNGGGWNIEQPSILNQSLSLKPYQKVGLNWLALVHKHGLNGILADEMGLGKTIQAIAFLAYLYQEGNNGPHLIVVPASTIDNWLREVNLWCPTLKVLCYYGSQEERKQIRFNIHSRYEDYNVIVTTYNCAISSSDDRSLFRRLKLNYAIFDEGHMLKNMGSIRYQHLMTINANNRLLLTGTPVQNNLLELMSLLNFVMPHMFSSSTSEIRRMFSSKTKSADEQSIYEKERIAHAKQIIKPFILRRVKEEVLKQLPPKKDRIELCAMSEKQEQLYLGLFNRLKKSINNLEKNTEMCNVMMQLRKMANHPLLHRQYYTAEKLKEMSQLMLKEPTHCEANPDLIFEDMEVMTDFELHVLCKQYRHINNFQLDMDLILDSGKFRVLGCILSELKQKGDRVVLFSQFTMMLDILEVLLKHHQHRYLRLDGKTQISERIHLIDEFNTDMDIFVFLLSTKAGGLGINLTSANVVILHDIDCNPYNDKQAEDRCHRVGQTKEVLVIKLISQGTIEESMLKINQQKLKLEQDMTTVDEGDEGSMPADIATLLKTSMGL
notes: SMARCAD1, human, full length; source: Hi5 insect cells (baculovirus), purified (HisTrap HP, Superdex 200)
[1]
  binding result: binds
[2]
  binding result: binds
